From paper PMC10681728, “Rad53 regulates the lifetime of Rdh54 at homologous recombination intermediates” (Nucleic Acids Research, 2023)
Several values for one entry are separate records, joined by “and”; a condition that tells them apart may be missing. Identical values can stand only once.

Key:
[1] = biological target: 6xHis-Rdh54S852A-mCherry (S. cerevisiae); experiment: single-molecule fluorescence intensity of clusters (TIRF, DNA curtains); as the cluster size estimate, but 1 nM Rdh54-mCherry mixed with 0.1 or 10 nM GFP-Rad53 or 10 nM GFP-Rad53D339A before injection onto dsDNA curtains
[2] = biological target: 6xHis-Rdh54S852A-mCherry (S. cerevisiae); experiment: single-molecule fluorescence intensity of clusters (TIRF, DNA curtains); Rdh54-mCherry clusters bound to dsDNA; background-subtracted cluster intensity divided by the mean intensity drop of one fluorophore; estimated molecules per cluster
[3] = biological target: 6xHis-Rdh54T851A-mCherry (S. cerevisiae); experiment: single-molecule fluorescence intensity of clusters (TIRF, DNA curtains); as the cluster size estimate, but 1 nM Rdh54-mCherry mixed with 0.1 or 10 nM GFP-Rad53 or 10 nM GFP-Rad53D339A before injection onto dsDNA curtains
[4] = biological target: 6xHis-Rdh54-mCherry (S. cerevisiae) (UniProt P38086)
[5] = biological target: 6xHis-Rdh54T851AS852A-mCherry (S. cerevisiae); experiment: single-molecule fluorescence intensity of clusters (TIRF, DNA curtains); Rdh54-mCherry clusters bound to dsDNA; background-subtracted cluster intensity divided by the mean intensity drop of one fluorophore; estimated molecules per cluster
[6] = biological target: the molecule itself; experiment: single-molecule photobleaching step counting (TIRF, DNA curtains); Rdh54-mCherry bound to double-tethered lambda dsDNA; 561 nm laser unshuttered at 25% power, 200 ms integration; steps counted for smaller groups

Molecule: 6xHis-Rdh54S852A-mCherry (natural protein)
- median estimated molecules per cluster with 10 nM GFP-Rad53 (molecules per cluster) [1]: 5.7
- median estimated molecules per cluster (molecules per cluster) [2]: 4.22

Molecule: 6xHis-Rdh54T851A-mCherry (natural protein)
- median estimated molecules per cluster with 10 nM GFP-Rad53 (molecules per cluster) [3]: 12.1

Molecule: 6xHis-Rdh54T851A (unlabeled) (natural protein)
- translocation rate on dsDNA of WT Rdh54 mixed with equimolar unlabeled Rdh54T851A (translocase poisoning) [4]: 23 bp/s

Molecule: 6xHis-Rdh54T851AS852A-mCherry (natural protein)
- median estimated molecules per cluster (molecules per cluster) [5]: 5.1

B1: 6xHis-Rdh54-mCherry (natural protein, S. cerevisiae, UniProt P38086 35-958, looked up)
chain: MQIPKYENKPFKPPRRVGSNKYTQLKPTATAVTTAPISKAKVTVNLKRSISAGPTLNLAKKPNNLSSNENTRYFTIMYRKPTTKKHKTWSGDGYATLKASSDKLCFYNEAGKFLGSSMLPSDSDSLFETLFKAGSNEVQLDYELKENAEIRSAKEALSQNMGNPSPPTTSTTETVPSTKNDGGKYQMPLSQLFSLNTVKRFKSVTKQTNEHMTTVPKTSQNSKAKKYYPVFDVNKIDNPIVMNKNAAAEVDVIVDPLLGKFLRPHQREGVKFMYDCLMGLARPTIENPDIDCTTKSLVLENDSDISGCLLADDMGLGKTLMSITLIWTLIRQTPFASKVSCSQSGIPLTGLCKKILVVCPVTLIGNWKREFGKWLNLSRIGVLTLSSRNSPDMDKMAVRNFLKVQRTYQVLIIGYEKLLSVSEELEKNKHLIDMLVCDEGHRLKNGASKILNTLKSLDIRRKLLLTGTPIQNDLNEFFTIIDFINPGILGSFASFKRRFIIPITRARDTANRYNEELLEKGEERSKEMIEITKRFILRRTNAILEKYLPPKTDIILFCKPYSQQILAFKDILQGARLDFGQLTFSSSLGLITLLKKVCNSPGLVGSDPYYKSHIKDTQSQDSYSRSLNSGKLKVLMTLLEGIRKGTKEKVVVVSNYTQTLDIIENLMNMAGMSHCRLDGSIPAKQRDSIVTSFNRNPAIFGFLLSAKSGGVGLNLVGASRLILFDNDWNPSVDLQAMSRIHRDGQKKPCFIYRLVTTGCIDEKILQRQLMKNSLSQKFLGDSEMRNKESSNDDLFNKEDLKDLFSVHTDTKSNTHDLICSCDGLGEEIEYPETNQQQNTVELRKRSTTTWTSALDLQKKMNEAATNDDAKKSQYIRQCLVHYKHIDPARQDELFDEVITDSFTELKDSITFAFVKPGEICLREQ
notes: Rdh54, S. cerevisiae DNA translocase; Name printed as 6xHis-Rdh54-mCherry, plasmid pET15-6xHis-Rdh54; also called WT-Rdh54; WT; source: E. coli Rosetta 2 BL21 (DE3), purified (Ni-NTA, SP cation exchange, S300 SEC)
- stoichiometry N [6]: 2 and 4 and 3
